Source: patent publication US20250313615A1 (ANNEXON, published 2025)

Molecular target: T1, complement factor C1q (Homo sapiens, UniProt P02745 23-245; P02746 28-253; P02747 29-245)
T1 construct: also called soluble C1q
Test: in vivo, phase 1b interim analysis in four lupus nephritis patients; pharmacodynamic read-out

T1 sequence (P02745 23-245 limits assumed, chain 1 of 3): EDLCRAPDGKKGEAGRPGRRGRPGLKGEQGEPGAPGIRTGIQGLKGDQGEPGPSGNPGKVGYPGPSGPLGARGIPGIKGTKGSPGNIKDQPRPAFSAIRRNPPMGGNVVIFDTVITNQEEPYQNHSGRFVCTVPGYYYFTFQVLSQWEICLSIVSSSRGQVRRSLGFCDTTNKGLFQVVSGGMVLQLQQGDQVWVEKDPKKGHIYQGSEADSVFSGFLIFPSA
T1 sequence (P02746 28-253 limits assumed, chain 2 of 3): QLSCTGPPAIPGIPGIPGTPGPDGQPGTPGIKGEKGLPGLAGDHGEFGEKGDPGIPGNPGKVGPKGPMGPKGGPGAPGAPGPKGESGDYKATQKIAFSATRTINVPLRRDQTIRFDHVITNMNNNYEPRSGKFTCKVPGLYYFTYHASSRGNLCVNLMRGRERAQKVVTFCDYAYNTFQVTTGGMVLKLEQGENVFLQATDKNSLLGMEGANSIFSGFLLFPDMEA
T1 sequence (P02747 29-245 limits assumed, chain 3 of 3): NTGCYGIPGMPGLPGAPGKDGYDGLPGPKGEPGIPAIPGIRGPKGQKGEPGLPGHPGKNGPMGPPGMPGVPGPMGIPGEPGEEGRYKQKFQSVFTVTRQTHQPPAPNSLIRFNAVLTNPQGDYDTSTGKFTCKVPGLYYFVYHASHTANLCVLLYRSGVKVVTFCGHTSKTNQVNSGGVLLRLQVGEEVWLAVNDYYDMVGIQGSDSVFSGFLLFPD

binding result: binds
B1: FabA (Fab)
heavy: QVQLVQSGAELKKPGASVKVSCKSSGYHFTSYWMHWVKQAPGQGLEWIGVIHPNSGSINYNEKFESRVTITVDKSTSTAYMELSSLRSEDTAVYYCAGERDSTEVLPMDYWGQGTTVTVSSASTKGPSVFPLAPSSKSTSGGTAALGCLVKDYFPEPVTVSWNSGALTSGVHTFPAVLQSSGLYSLSSVVTVPSSSLGTQTYICNVNHKPSNTKVDKKVEPKSCDKTHT
light: DVQITQSPSSLSASLGERATINCRASKSINKYLAWYQQKPGKAPKLLIYSGSTLQSGIPARFSGSGSGTDFTLTISSLEPEDFAMYYCQQHNEYPLTFGQGTKLEIKRTVAAPSVFIFPPSDEQLKSGTASVVCLLNNFYPREAKVQWKVDNALQSGNSQESVTEQDSKDSTYSLSSTLTLSKADYEKHKVYACEVTHQGLSSPVTKSFNRGEC
notes: also called anti-C1q Fab; anti-C1q antibody Fab fragment
